According to the nanobody polyreactivity screen of Harvey et al. (2022):

Assay: yeast display, Sf9 membrane polyspecificity reagent, FACS + sequencing; frameworks hold sequencing errors
Method in brief: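 Using colony PCR, genes from sorted yeast display clones were amplified, then sequenced on MiSeq at 2 × 250 and filtered by CDR length. The clones had been stained with 10% biotinylated, detergent-solubilized Sf9 membrane reagent for 1 hour at 4 °C and sorted by FACS into low and high (top ~1%) gates on anti-HA and streptavidin fluorescence. Polyreactivity labels come from the gate of origin.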

Sequence | polyreactivity (PSR sort gate)
QVHLVESGGGIVQAGLSLRLSCAASGRTFVVNAMGWYRQAPGKERELVAAISYSGGRTYYADSVKGRFTISRDIAKNTVYLKMNSLKPEDTAVYYCAAQSRYGGKFYYWGQGTQVTVSS | high polyreactivity
QVQLVESGGGLVQAGGSLRLSCAASGITTRTYAMGWYRQAPGKDRELVAAISDSGDRTYYADSVKGRCTISRDKAKNTVYLQMNSLKPEDTAVYYCAVDAPGPRGEYWGQGTKVTVSS | low polyreactivity
QVQLVESGGGLVQAGGSLRLSCAASGIIFGQNALGWYRQAPGKEREVVAAITISGGSTYYSDSVKGRFTISRDNAKNTVYLQMNSLKPEDTAVYYCAAEWYYVYIAPYDYWGQGTQVTVSS | low polyreactivity
QVQLVESGGGLVQAGGSLRLSCAASGIIFRFYAMGWSRQAPGKERELVATISKRGGTTYYADSVKGRFTISRDYAMNTVDLQMNSLKPEDSAVYYCAVRLYLEMDYWGQGTQVTVSS | high polyreactivity
QVQLLESGGGLVQAGGSLRLSCAASGIIVSYAMGWYRQAPGKERELVAAIRYSGDSTYYADSVKGRFTISRDNAKNTVYLQMNSLKPEDTAVYYCAATKGWSRYEYWGQGTQVTVSS | low polyreactivity
QVQLVESGGGLVQAGGSLRLSCAASGFIFASNAMGWYTQAPGKERELVASITIGDSTYYADSVKGRFTISRDNAKNTVYLQMNSLKPEDTAVYYCAAVKTVDVGYDYWGQGTQVTVSS | low polyreactivity
QVQLVESGGGLVQAGGSLRLSCAASGRTFRIYAMGWYRQAPGKERELVAAISARGGSTYYADSVKGRFTISRDNAKNTVYLQMNSLKPEDTAVYYCAAEKTRRVDYWGQGTQVTVSS | high polyreactivity
QVQLVESGGGLVQAGGSLRLSCAASGFTFYSYVMGWYRQAPGKERELVAAIDPSGGRTYYADSVKGRFTISRDYAKNTVYLQMNSLKPVDTAVYYCAVPRVDYWGQGTQVTVSS | high polyreactivity
QVQLVESGGGLVQAGGSLRLSCAASGRIIKLYAMGWYRQAPGKEREFVAAITWSGGRTYYADSVKGRFTISRDNAKNTVYLQMNSLKPEDTAVYYCAAYDTYDWYDYWGQGTQVTVSS | high polyreactivity
QVQLVESGGGLVQAGGSLRLSCAASGSTFNSYAMGWYRQAPGKERELVAAITSSVGSTYYADSVKGRFTISRDNAKNTVYLQMNSLKPEDTAVYYCAADYFSYWYFSGYDYWGQGTQVTVSS | low polyreactivity
QVQLVESGGGLVQAGGSLRLSCAASGSIFGDYVMGWNRQAPGKERELVAAINRGGSTYYADSVKGRFTISRDNAKNTVYLQMNSLKPEDTAVYYCAAGYPSWYYGYPYDSWGQGSQVTVSS | low polyreactivity
QVQLVESGGGLVQAGGSLRLSCAASGRIFYWNAMGWYRQAPGKERELVAGITGGGNTNYADSVKGRFTISRDNAKNTVYLQMNSLKPEDTAVYYCATRTNRRRSYDYWGQGTQVTVSS | high polyreactivity
QVQLVESGGGLVQAGGSLRLSCAASGFIFYPYAMGWYRQAPGKERELVAVITSGGRTYYADSVKGRFTISRDNAKNTVYLQMNSLKPEDTAVYYCAAQYIQAWRLFDYWGQGTQVTVSS | low polyreactivity
QVQLVESGGGLVQAGGSLRLSCAASGITFYGYTIGWYRQAPGKERELVATITRGGSTYYADSVKGRFTISLDNAKNTVYLQMNSLKPEDTAGYYCAAESQYDYGVEFDYWGQGTQVTVSS | low polyreactivity
QVQLVESGGGLVQAGGSLRLSCAASGITSKQYAMGWYRQAPGKEWELVAAISGSGTRTYYADSVKGRFTISRDNAKNTVYLQMNSQKPEDTAVYYCAAYYHLVVKRLRYDYWGQGTQVTVSS | high polyreactivity
QVQLVESGGGLVQAGGSLRLSCAASGFTFRWYDMGWYRQAPGKERELVAAIDASDGSTYYADSVKGRFTISRDNAKNTVYLQMNSLKPEDTAVYYCAADSYYRYYWGQGTQVTVSS | high polyreactivity
QVQLVESGGGLVQAGGSLRLSCAASGRTLSGYAMGWYRQAPGKERELVAVITSGGSTYYADSVKGRFTISRDNAKNTVYLQMNSVKPEDTAVYYCSARRGRRLQDSQYWGQGTQVTVSS | high polyreactivity
QVQLVESGGGLVQAGGSLRLSCAASGRTFIGYAMGWYIQAPGKERELVAAISPGGSTKYADSVKGRFTISRDNAKNTVYLQMNILKPEDTAVYYCNAYSQSWNFYGDGDYWGQGTQVTVSS | low polyreactivity
QVQLVESGGGLVQAGGSLRLSCAASGFIFGGNAMGWYRQAPGKERELVAAITARSGSTYYADSVKGRFTISRDNAKNTVYLQMNSLKPEDTAVYYCATPVYRSTYEYDYWGQGTQVTVSS | low polyreactivity
QVQLVESGGGLVQAGASLRLICAASGSTFQGNAIGWNRQAPGKERELVAAISRSGGSTYADSVKGRFTISRDNAKNTVYLQLNSLKPEDTAVYYCAAYSGVGYLWFDYWGQGTQVTVSS | low polyreactivity
QVQLVESGGGLVQAGGSLRLSCAASGFTFNSYAMGWYRQAPGKERELVAAISSSGGRTYYADSVKGRFTISRDNAKNTVYLQMNSLKPEETAVYYCNAVLVSYYSVGYDYWGQGTQVTVSS | high polyreactivity
QVQLVESGGGLVQAGGSLRLSCAASGFTFPQYAMGWYIQAPGKERELVASITRRGGSTFYADSVKGRFTISRDNAKNTVYLQMNSLKPEDTAVYYSAAGDYSRSVSRYWYTDYDYWGQGTQVTVSS | high polyreactivity

Sequence | polyreactivity (PSR sort gate)
QVQLVESGGGLVQAGGSLRLSCAASGSIFRAYAMGWYRQAPGKERELVAAISWGGGSTSYADSVKGRFTISRDNAKNTVYLQMNSLNPEDTAVYYCAARFIWPARYYSWGQGTQVTVSS | high polyreactivity
QVQLQESGRRPGAAGGSPRMSCAASGNIFWVAVMGRYRQAPGKERELVASIGFGCTTYYADSVKCRFTISRDNAKNTVYRQMISLKPEDTAVYYCAAPHYDWGELDYWGQGTQVPVSS | low polyreactivity
QVQLVESGGGLVQAGGSLRLSCAASGSIFSFYSMGWYRQAPGKERELVSGITWSGGSTYYADSVKGRFTISRDNAKNTVYLQMNSLKPEDTAVYYCAKTKWYYWYTSFPSVQSYDYWGQGTHVTVSS | high polyreactivity
QVHLVESGGGLVQAGGSLRLSCAASGFTFRRYAMGWDRQAPGKERELVASISSGGSTNYADSVKGRCTISRDNAKNTVYLQMNSLIPEDTAVYYCAVSYRSFRYYWERYYSWGQGTQVTVSS | high polyreactivity
QVQRVESGGGLVQAGGRLRISCAASGRTFRGNDMGWYRQAPGKERELVPTITRNGGSTRYADSVKGRFTISRDNAKNTVYLQMNSLQPEDTAVYYCAAREKYTPALEVEYWGQGTQVTVSS | high polyreactivity
QVHLVESGGGLVQAGGSLLLSCAASGSIFYFYAMGWYRQAPGKERELVAGITWRGGRTYYADSVKGRFTISRDNAKNTVDLQMIILKPEDTAVYYCAARFWSTYGYDSWGQGTQVTVSS | high polyreactivity
QVQLVESGGGLVQAGGSLRLSSAASGSIFRRYALGWYRQEPGKESELVAAISRSAGSTYYADSVKGRFTISRDNAKNTVYLQMNSLKPEETAVYYCKTDPSRSPGDVVSASVIKRDYWGQGTQVTVSS | low polyreactivity
QVQLLESGGGIVQAGGSHRLRCAASGSIFGTNAMCWYRQATGKERELVAAISLSTGSTYYADSVKGRFTISRDNAKNTVYLQMNSLKPEDTAVYYCAAYYVTPIYYYWGQGTQVTVSS | low polyreactivity
QVQLVESGGGLVQAGGSLRISCAASGSIFGYAMACYRQGPGKERELVAAITSSGGSTYYADSVKGRFTISRDNAKNTVYLHKNSLKPEDTAGYYCNAYLRWYITLLRFLAGGDYWGQGYQVTVSS | high polyreactivity
QVQLVESGGGLVQAGGSLRLSCAASGFTFGYNAMGWYRQAPGKERELVAVITQSGGRTYYADSVKGRFTISRDNAKNTVYLQMISLKPEDTAVYYCNKVPRVYGYVKGSDYWGQGTQVTVSS | high polyreactivity
QVQLVESGGGLVQAGGSLRLSCAASGRIFHPNAMGWYIQAPGKERELDAAISRSGSTYYADSVKGRFTISRDNAKNTVYLQMNSLKPEDTAVYYCATQTWSCFSGTPRIYDYWGQGTQVTVSS | high polyreactivity
QVQLVESGGGIVQAGGSLRFSCAASGFTFWKYTRGWYRQAPGKERELVAAINGGGGDTYADSVKGRFTISRDNAKNTVYLQMNSLKPEDTAVYYCAARYGTGTTWVQPTEMDYWGQGTQVTVSL | low polyreactivity
QVQLVESGGGLVQAGGSLRLSCAASGSTFDIYVMGWYRQAPGKERELVAAISRVGNTSYADSVKGRFTISRDNAKNTVYLQMNRLNPEDTAVYYCAADRADFFVIRTIDPYDYWGQGTQVTVSS | low polyreactivity
QVQLVESGGGLVQAGGSLRLSCAASGFTLDWYVMGWYRQAPGKEREFVASIRYSGGSTYYADSVKGRFTISRDNAKNTVYLQMNRLKTEDTAVYYCAARTVTLSYLYYYWGQGTQVTVSS | high polyreactivity
QVQLVESGGGLVQAGGSLRLSCAASGSIFDRYGMGWYRQAPGKERELVADITSDGSTNYADSVKGRFTISRDNAKNTVYLQMNSLKPEDTAVYYCAVSYTAYSVGYDYWGQGTQVTVSS | low polyreactivity
QVQLVESGGGLVQAGGSLRLSCAASGSTFVRNVMGWYRQAPGKERELVAAITRSGDTTYYADSVKGRFTISRDNAKNTVYLQMNSLKPEDTAVYYCAKRTFVRRGSIYPIDDYWGQGTQVTVSS | low polyreactivity
QVQLVESGGGLVQAGGSLRLICPASGRIFLTKAIGWYRPAPGIDRELVADISRGGSTYADSVKGRFTISSDNAKNTVYLQINSLKPEDTAVYYCAPDEYSPADSRTRYDYWGQGTQVSVSS | low polyreactivity
QVQLVESGGGLVEAGGSLRLSCAASGLTFEVYAMGWYRHAPGKERELVAVITSVGSTNYADSVKGRFTISRDNAKNTVYLQMNSLKPEDTAVYYCAADKWTVRRFNPYTYYRYDYWGQGTQVTVSS | low polyreactivity
QVQLVESGGGLVQAGGSLRLSCAASGFIFQIYPMGWYRQAPGKERELVAAISSGGSTNYADSVKGRFTISRDNAKNTVYLQMNSLKPEDTAVYYCAAATHYWYFYSFKDKSGFRGYYWGQGTQVTVSS | high polyreactivity
QVQLVESGGGLVQAGGSLRLSCAASGITFPSYAMGWYRQAPGKEWELVATISRGDSTYYADSVKGRFTISRDNAKNTVYLQMNSLKPEDTAVYYCNARWWFQLYYYSTFAGYNYWGQGTQVTVSS | low polyreactivity
QVQLVESGGGLVQAGGSLRLSCAASRSIFRYYTMGWYRQAPGKETELVASISRGGSTNYADSVKGRFTISRDNAKNTVYLQMNSLKPEDTAVYDCAAGWTTRYFGGVDYWGQGTQVTVSS | high polyreactivity
